Reference: patent US20210047432A1 (DIACCURATE, published 2021)
Read-outs that look alike come from different tables or passages of the source. One block for each binder: values may come before it.

Key:
[1] = molecular target: T1, recombinant human pro-sPLA2-GIB (human, UniProt P04054 16-148); assay: competitive ELISA: constant antibody premixed with dilutions of soluble antigen, free antibody caught on antigen-coated plate
T1 construct: also called pro-sPLA2-IB; proPLA2-GIB
Method: (§1) Binding affinities of the humanized antibodies to pro-sPLA2-GIB and sPLA2-GIB were measured by plate-based competition immunoassay. For the competition ELISA, briefly, constant amounts of antibody at different levels were premixed with serial dilutions of antigen protein, human sPLA2-GIB or pro-sPLA2-GIB, ranging from 0 to 10 μg/ml, and incubated for two hours at room temperature to reach pseudo-binding equilibrium between the antibody and antigen. These solutions were then transferred to 96-well sPLA2-GIB or pro-sPLA2-GIB pre-coated plates to allow the free-antibody in the mixtures to bind to plate-coated sPLA2-GIB or pro-sPLA2-GIB. The plates were typically coated with 30 to 100 ng of human sPLA2-GIB or pro-sPLA2-GIB protein in PBS solution overnight at 4° C. followed by BSA nonspecific blocking. After washing off excess antibody in solution, plate-bound antibodies were detected with an HRP-conjugated goat anti-mouse IgG or IgA polyclonal antibody reagent and developed using colorimetric substrate. The dependency of the signals on the concentrations of antigen in solution was analyzed with a 4-parameter fit analysis using Prism™ software (Graph Pad) and reported as IC50.
(§2) The respective binding affinities of the humanized antibodies to human pro-sPLA2-GIB and human sPLA2-GIB were measured by plate-based competition immunoassay. Briefly, constant amounts of antibody at different levels were premixed with serial dilutions of antigen proteins to reach pseudo-binding equilibrium between the antibody and antigen. These solutions were then transferred to antigen pre-coated plates to allow the free-antibody in the mixtures to bind to plate-coated sPLA2-GIB or pro-sPLA2-GIB. Plate-bound antibodies were detected with an HRP-conjugated polyclonal antibody. Data were fitted with a 4PL logistic non-linear regression model and the relative IC50 values were estimated from the model (Table 4).

[2] = molecular target: T2, recombinant human sPLA2-GIB (mature secreted group IB pancreatic phospholipase A2) (human, UniProt P04054 23-148); assay: as above
T2 construct: also called sPLA2-IB; PLA2-GIB mature form
T2 sequence (P04054 23-148): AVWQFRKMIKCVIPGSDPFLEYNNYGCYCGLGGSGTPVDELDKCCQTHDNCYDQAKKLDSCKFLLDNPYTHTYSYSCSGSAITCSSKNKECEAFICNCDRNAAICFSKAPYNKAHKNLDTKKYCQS
Method: as §1, §2

human FcγRIIIA(V176) = molecular target: T3, human FcγRIIIA(V176) (human, UniProt P08637 17-254); assay: flow cytometry, monomeric IgG (100 ng/mL) on CHO cells expressing the receptor
T3 construct: whole, on cells; also called hFcγRIIIA(V176)
T3 sequence (P08637 17-254 F176V limits assumed): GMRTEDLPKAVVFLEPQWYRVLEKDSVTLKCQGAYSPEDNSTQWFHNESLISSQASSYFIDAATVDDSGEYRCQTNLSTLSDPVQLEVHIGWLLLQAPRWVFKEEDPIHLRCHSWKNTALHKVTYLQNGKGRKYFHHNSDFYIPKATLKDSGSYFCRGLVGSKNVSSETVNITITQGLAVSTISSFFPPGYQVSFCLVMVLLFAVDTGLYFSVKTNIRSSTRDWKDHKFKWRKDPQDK
Method: (§3) Monomeric IgG binding was tested by incubating the #2B, #2B1 and #2B2 antibodies (100 ng/mL) with 1×10⁵ CHO cells stably expressing human FcγRs for 30 min on ice. The cells were then washed, detached, fixed, and analyzed by flow cytometry (FACSCalibur; BD Biosciences).
(§4) The binding of monomeric #2B, #2B1 and #2B2 to human FcγRs was tested by flow cytometry by incubating the mAbs with CHO cells stably expressing human FcγRI, FcγRIIA (H131), FcγRIIA(R131), FcγRIIB, FcγRIIIA(F176), FcγRIIIA(V176), FcγRIIIB(NA1), FcγRIIIB(NA2), and FcγRIIIB(SH), (REF P. Bruhns). As presented in FIG. 9, #2B is binding to hFcγRI and hFcγRIIIA(V176) only, whereas no monomeric binding of #2B1 and #2B2 to all tested hFcγRs was observed. Antibody-antigen immune complex was tested by first incubating the mAb with the antigen and then, incubating the immune complexes formed with CHO cells stably expressing human FcγRs. The immune complexe of #2B is binding to all tested hFcγRs, except hFcγRIIB (FIG. 10). Weak binding is observed for immune complex of #2B1 to hFcγRIIIA(V176) (data not shown), whereas no immune complex binding of #2B2 to any tested hFcγRs (data not shown).

human FcγRI = molecular target: T4, human FcγRI (human, UniProt P12314 16-374); assay: as above
T4 construct: whole, on cells; also called hFcγRI
T4 sequence (P12314 16-374): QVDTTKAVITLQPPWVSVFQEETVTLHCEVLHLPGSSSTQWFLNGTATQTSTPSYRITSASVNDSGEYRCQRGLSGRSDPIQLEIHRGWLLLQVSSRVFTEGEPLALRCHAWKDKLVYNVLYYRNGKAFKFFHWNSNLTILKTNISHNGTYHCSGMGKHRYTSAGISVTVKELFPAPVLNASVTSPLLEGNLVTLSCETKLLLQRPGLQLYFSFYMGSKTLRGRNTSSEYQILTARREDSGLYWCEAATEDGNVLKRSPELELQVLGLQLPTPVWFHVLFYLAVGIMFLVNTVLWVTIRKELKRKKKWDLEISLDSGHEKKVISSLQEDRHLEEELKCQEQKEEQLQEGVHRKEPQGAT
Method: as §3, §4

[3] = molecular target: T1, recombinant human pro-sPLA2-GIB; assay: SPR (BIAcore 2000), antibody captured, antigen in solution
Method: (§5) The affinity constants (KD) of the pro-sPLA2-GIB and sPLA2-GIB binding to the #2B, #2B1 and #2B2 antibodies were determined by surface kinetics on a real-time biosensor surface plasmon resonance assay (BIAcore™). More specifically, the affinity of the antibodies for human pro-sPLA2-IB and sPLA2-IB was measured using a BIAcore® 2000. The antibody was captured on an anti-mouse IgG surface and exposed to various concentrations of recombinant pro-sPLA2-IB and sPLA2-IB protein. Kinetic analysis using BIAevaluation™ software was performed to obtain the association and dissociation rate constants.
as §5, with “to” for “to the #2B,”, “#2B2” for “#2B2 antibodies”, “(BIAcore™).” for “(BIAcore™). More specifically, the affinity of the antibodies for human pro-sPLA2-IB and sPLA2-IB was measured using a BIAcore® 2000.”, “constants (Table 7).” for “constants.”

[4] = molecular target: T2, recombinant human sPLA2-GIB (mature …); assay: as above
Method: as §5
as §5, with “to” for “to the #2B,”, “#2B2” for “#2B2 antibodies”, “(BIAcore™).” for “(BIAcore™). More specifically, the affinity of the antibodies for human pro-sPLA2-IB and sPLA2-IB was measured using a BIAcore® 2000.”, “constants (Table 7).” for “constants.”

[5] = molecular target: T2, recombinant human sPLA2-GIB (mature …); assay: cell-based or functional assay
[6] = molecular target: T1, recombinant human pro-sPLA2-GIB; assay: competitive ELISA: constant antibody premixed with dilutions of soluble antigen, free antibody caught on antigen-coated plate; remark: listed apart in the source
Method: as §1, with “the” for “the humanized”, “pro-sPLA2-IB” for “pro-sPLA2-GIB”, “sPLA2-IB” for “sPLA2-GIB”, “pro-sPLA2-IB,” for “pro-sPLA2-GIB,”, “µg/ml,” for “μg/ml,”, “pro-sPLA2-IB.” for “pro-sPLA2-GIB.”

[7] = molecular target: T2, recombinant human sPLA2-GIB (mature …); assay: as above; remark: listed apart in the source
Method: as §1, with “the” for “the humanized”, “pro-sPLA2-IB” for “pro-sPLA2-GIB”, “sPLA2-IB” for “sPLA2-GIB”, “pro-sPLA2-IB,” for “pro-sPLA2-GIB,”, “µg/ml,” for “μg/ml,”, “pro-sPLA2-IB.” for “pro-sPLA2-GIB.”

[8] = molecular target: T1, recombinant human pro-sPLA2-GIB; assay: indirect ELISA: antigen coated on the plate, #14G9 mAb titrated (x axis mAb, Log M, -9.5 to -6.5), OD450 nm readout; the curve reaches only OD450 about 1.6 at the highest concentration, no upper plateau
Method: (§6) Microplate wells were typically coated with 100 ng of recombinant human sPLA2-X, sPLA2-IB or pro-sPLA2-IB in PBS pH 7.5, overnight at 4° C. Sample wells were washed three times with PBS containing 0.05% Tween 20. After final washing, sample wells were treated with blocking solution containing 1% bovine serum albumin (BSA) in PBS buffer for 60 min at room temperature. Following washing with PBS containing 0.05% Tween 20, increasing amounts (10 ng/mL up to 3 μg/mL) of #14G9 mAb were added to antigen-coated wells. and incubated for 120 min at room temperature. Following washing with PBS containing 0.05% Tween 20, the binding of #14G9 mAb was detected with an HRP-conjugated goat anti-mouse IgG or IgA polyclonal antibody reagent and developed using colorimetric substrate. The dependency of the signals on the concentrations of antigen in solution was analyzed with a 4-parameter fit analysis using Prism™ software (Graph Pad) and reported as EC50.

[9] = molecular target: T2, recombinant human sPLA2-GIB (mature …); assay: indirect ELISA: antigen coated on the plate, #14G9 mAb titrated (x axis mAb, Log M, -9.5 to -6.5), OD450 nm readout
Method: as §6

[10] = molecular target: T1, recombinant human pro-sPLA2-GIB; assay: SPR (BIAcore 2000), antibody captured on anti-mouse IgG surface, antigen in solution
Method: as §5, with “pro-sPLA2-IB” for “pro-sPLA2-GIB”, “sPLA2-IB” for “sPLA2-GIB”, “#14G9 antibody” for “#2B, #2B1 and #2B2 antibodies”

[11] = molecular target: T2, recombinant human sPLA2-GIB (mature …); assay: as above
Method: as §5, with “pro-sPLA2-IB” for “pro-sPLA2-GIB”, “sPLA2-IB” for “sPLA2-GIB”, “#14G9 antibody” for “#2B, #2B1 and #2B2 antibodies”

[12] = molecular target: immune complex of #2B2 with sPLA2-GIB (human, UniProt P04054 23-148); assay: flow cytometry, antibody-antigen immune complex on CHO cells expressing the receptor
immune complex of #2B2 with sPLA2-GIB, sequence (heavy, as listed by the source, chain 1 of 3, one chain of several): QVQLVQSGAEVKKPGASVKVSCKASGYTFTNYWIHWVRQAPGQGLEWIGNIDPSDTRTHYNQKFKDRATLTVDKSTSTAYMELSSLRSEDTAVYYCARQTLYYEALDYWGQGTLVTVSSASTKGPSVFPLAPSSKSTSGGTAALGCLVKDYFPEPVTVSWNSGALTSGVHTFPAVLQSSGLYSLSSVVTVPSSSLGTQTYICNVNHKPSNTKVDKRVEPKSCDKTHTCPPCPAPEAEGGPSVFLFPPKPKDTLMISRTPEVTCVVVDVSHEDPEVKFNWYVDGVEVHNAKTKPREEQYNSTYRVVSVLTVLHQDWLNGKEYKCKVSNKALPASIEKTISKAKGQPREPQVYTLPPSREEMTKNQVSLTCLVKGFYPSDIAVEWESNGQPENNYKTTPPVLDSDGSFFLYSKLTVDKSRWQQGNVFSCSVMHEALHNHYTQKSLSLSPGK
immune complex of #2B2 with sPLA2-GIB, sequence (P04054 23-148, chain 3 of 3, one chain of several): as the sequence (P04054 23-148) above
Method: (§7) Antibody-antigen immune complex were generated by co-incubation of 10 µg/ml of humanized antibodies and 5 μg/ml of sPLA2-GIB for 30 min at 37° C. Immune complexes were then incubated with 1×10⁵ CHO cells stably expressing human FcγRs for 30 min on ice. The cells were then washed, detached, fixed, and analyzed by flow cytometry (FACSCalibur; BD Biosciences).
as §4

[13] = molecular target: T5, immune complex of #2B with sPLA2-GIB (human, UniProt P04054 23-148); assay: as above
T5 construct: also called immune complexe of #2B; antibody-antigen immune complex
Method: as §7, §4

T1 sequence (P04054 16-148): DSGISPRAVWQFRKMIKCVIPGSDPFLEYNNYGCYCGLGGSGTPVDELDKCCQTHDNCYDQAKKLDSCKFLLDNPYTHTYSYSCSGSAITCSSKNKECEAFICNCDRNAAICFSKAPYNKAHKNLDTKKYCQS

IC50 [1]: 341 nM
IC50 [2]: 2.3 nM
binding result (human FcγRIIIA(V176)): binds
binding result (human FcγRI): binds
Kd [3]: 785 nM
koff [3]: 0.142 s⁻¹
kon [3]: 176000 M⁻¹ s⁻¹
t½ [3]: 0.08 min
Kd [4]: 0.786 nM
koff [4]: 0.00225 s⁻¹
kon [4]: 2.89e+06 M⁻¹ s⁻¹
t½ [4]: 5.1 min
EC50 for the restoration of the sPLA2-IB effect on IL-7 induced phosphoSTAT5 nuclear translocation in human CD4 T cells (75 nM sPLA2-GIB) [5]: 3.7 ng/mL
B1: humanized antibody #2B (antibody, human IgG1, kappa)
heavy: not shown
light: EIVMTQSPATLSVSPGERATLSCKASQDVSTAVAWYQQKPGQAPRLLIYWASTRHTGIPARFSGSRSGTEYTLTISSLQSEDFAVYYCQQDYSTPPTFGGGTKVEIKRTVAAPSVFIFPPSDEQLKSGTASVVCLLNNFYPREAKVQWKVDNALQSGNSQESVTEQDSKDSTYSLSSTLTLSKADYEKHKVYACEVTHQGLSSPVTKSFNRGEC
notes: Humanized 14G9, IGHV1-46*01 version B heavy and IGKV3-15*01 version B light; also called Ab #2B; mAb #2B; copies: 2 + 2

IC50 [6]: 109 nM
IC50 [7]: 1 nM
EC50 [8]: 158 nM
EC50 [9]: 6 nM
EC50 for the restoration of the sPLA2-IB effect on IL-7 induced phosphoSTAT5 nuclear translocation in human CD4 T cells (75 nM sPLA2-GIB) [5]: 2.2 ng/mL
inhibition of sPLA2-IB enzymatic activity, EC50 [5]: 2.3 nM
Kd [10]: 174 nM
Kd [11]: 0.34 nM
B2: #14G9 mAb (mouse anti-sPLA2-GIB monoclonal antibody) (antibody, V domains shown)
VH: QVQLQQPGAELVKPGASVKLSCKASGYTFTNYWIHWVKRRPGQGLEWIGNIDPSDTRTHYNQKFKDKATLAVDKSSSTAYMQLSSLTSEDSAVFYCARQTLYYEALDYWGQGTTLTVSS
VL: DIVMTQSHKLMSTSVGDRVSITCKASQDVSTAVAWYQEKPGQSPKLLIYWASTRHTGVPNRFTGSRSGTDYTLTISSVQAEDLALYYCQQDYSTPPTFGAGTKLELKR
notes: Mouse hybridoma antibody; also called monoclonal antibody 14G9

binding result [12]: no binding
binding result [13]: no binding
B3: human FcγRIIB (receptor, UniProt P31994 43-310, looked up)
chain: TPAAPPKAVLKLEPQWINVLQEDSVTLTCRGTHSPESDSIQWFHNGNLIPTHTQPSYRFKANNNDSGEYTCQTGQTSLSDPVHLTVLSEWLVLQTPHLEFQEGETIVLRCHSWKDKPLVKVTFFQNGKSKKFSRSDPNFSIPQANHSHSGDYHCTGNIGYTLYSSKPVTITVQAPSSSPMGIIVAVVTGIAVAAIVAAVVALIYCRKKRISALPGYPECREMGETLPEKPANPTNPDEADKVGAENTITYSLLMHPDALEEPDDQNRI
notes: whole, on cells; also called hFcγRIIB
